In US20020053098:

Assays:
[1] = target: herbicide-resistant mutant (Met124His) Arabidopsis AHAS large subunit protein (UniProt P17597)
[2] = target: wild type Arabidopsis AHAS large subunit protein (pAC774) (UniProt P17597)

Sequence of Arabidopsis AHAS small subunit protein expressed from plasmid F1 (chain, as listed by the source): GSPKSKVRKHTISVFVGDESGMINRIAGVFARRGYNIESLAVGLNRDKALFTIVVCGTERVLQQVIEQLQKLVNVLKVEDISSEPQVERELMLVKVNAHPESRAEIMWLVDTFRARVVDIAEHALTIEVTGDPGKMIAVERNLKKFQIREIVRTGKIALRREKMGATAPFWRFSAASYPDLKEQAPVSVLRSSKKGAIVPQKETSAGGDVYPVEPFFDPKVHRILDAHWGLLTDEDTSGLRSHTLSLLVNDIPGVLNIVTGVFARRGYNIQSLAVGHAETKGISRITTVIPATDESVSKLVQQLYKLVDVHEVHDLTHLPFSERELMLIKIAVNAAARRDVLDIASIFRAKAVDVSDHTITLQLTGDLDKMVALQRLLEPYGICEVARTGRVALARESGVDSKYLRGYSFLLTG

Substance: Arabidopsis AHAS small subunit protein expressed from plasmid F1
- AHAS enzymatic activity of the mutant large subunit in vitro, in the presence of small subunit [1]: the enzymatic activity of a herbicide-resistant form of the large subunit is also enhanced
- AHAS enzymatic activity of the large subunit in vitro, with increasing amounts of small subunit [2]: small subunit protein enhances the level of enzymatic activity of the catalytic large subunit
